Tests used:
[1] = system: T1, BsmBI (Bacillus stearothermophilus); test: cleavage_in_vitro; conditions: NEB4, 55 C, Mg2+
T1 sequence: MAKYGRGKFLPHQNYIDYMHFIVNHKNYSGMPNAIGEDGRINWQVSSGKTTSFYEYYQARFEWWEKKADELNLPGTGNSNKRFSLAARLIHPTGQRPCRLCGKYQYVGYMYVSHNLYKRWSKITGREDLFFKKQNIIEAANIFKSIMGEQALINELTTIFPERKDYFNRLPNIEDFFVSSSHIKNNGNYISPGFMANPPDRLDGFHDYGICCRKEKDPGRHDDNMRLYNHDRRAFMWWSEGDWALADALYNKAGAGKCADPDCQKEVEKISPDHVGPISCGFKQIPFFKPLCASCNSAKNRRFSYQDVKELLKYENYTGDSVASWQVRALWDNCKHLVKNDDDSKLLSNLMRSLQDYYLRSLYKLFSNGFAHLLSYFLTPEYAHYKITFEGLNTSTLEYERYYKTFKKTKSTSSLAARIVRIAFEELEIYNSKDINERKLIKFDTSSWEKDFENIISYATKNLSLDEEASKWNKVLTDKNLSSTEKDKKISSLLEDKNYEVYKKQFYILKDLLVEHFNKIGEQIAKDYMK

[2] = system: T2, BspQI (Bacillus sphaericus); test: cleavage_in_vitro; conditions: NEB4, 50 C, Mg2+
T2 sequence: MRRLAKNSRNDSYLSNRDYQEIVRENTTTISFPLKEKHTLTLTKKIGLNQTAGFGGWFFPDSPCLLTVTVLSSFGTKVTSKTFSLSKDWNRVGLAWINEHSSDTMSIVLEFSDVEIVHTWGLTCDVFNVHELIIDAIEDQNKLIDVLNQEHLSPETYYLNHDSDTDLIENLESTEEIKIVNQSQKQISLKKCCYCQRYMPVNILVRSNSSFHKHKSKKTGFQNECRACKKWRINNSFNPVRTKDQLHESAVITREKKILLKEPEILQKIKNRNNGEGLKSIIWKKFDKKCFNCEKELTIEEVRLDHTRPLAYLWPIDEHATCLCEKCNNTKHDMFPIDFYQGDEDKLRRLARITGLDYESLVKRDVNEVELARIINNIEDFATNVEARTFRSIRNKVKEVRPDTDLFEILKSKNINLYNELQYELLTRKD

lambda DNA
activity (fidelity index) [1]: 4 | activity (fidelity index) [2]: 4

Source: patent US20130115677
